# T1: CgnB in the presence of CgnA (400 µM) (Chondromyces crocatus CM c5)
# T1 chain: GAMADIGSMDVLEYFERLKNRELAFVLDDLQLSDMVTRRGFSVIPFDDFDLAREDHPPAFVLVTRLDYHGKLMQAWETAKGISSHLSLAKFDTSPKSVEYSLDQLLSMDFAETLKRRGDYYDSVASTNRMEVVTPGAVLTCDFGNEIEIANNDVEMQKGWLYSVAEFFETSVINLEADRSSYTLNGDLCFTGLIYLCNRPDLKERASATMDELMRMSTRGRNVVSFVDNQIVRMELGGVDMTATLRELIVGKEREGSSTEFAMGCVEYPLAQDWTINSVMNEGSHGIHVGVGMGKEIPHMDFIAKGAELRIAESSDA
# T2: CgnE (Chondromyces crocatus CM c5)
# T2 chain: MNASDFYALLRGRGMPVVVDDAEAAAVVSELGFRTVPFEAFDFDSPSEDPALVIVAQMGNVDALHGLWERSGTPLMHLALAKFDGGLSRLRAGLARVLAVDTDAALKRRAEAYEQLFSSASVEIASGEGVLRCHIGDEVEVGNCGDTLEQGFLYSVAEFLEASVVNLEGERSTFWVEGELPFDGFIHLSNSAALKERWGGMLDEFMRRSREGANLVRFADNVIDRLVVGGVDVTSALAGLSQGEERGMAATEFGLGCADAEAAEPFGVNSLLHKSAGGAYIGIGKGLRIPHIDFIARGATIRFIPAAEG
# T3: CgnE in the presence of CgnA (400 µM) (Chondromyces crocatus CM c5)
# T3 chain: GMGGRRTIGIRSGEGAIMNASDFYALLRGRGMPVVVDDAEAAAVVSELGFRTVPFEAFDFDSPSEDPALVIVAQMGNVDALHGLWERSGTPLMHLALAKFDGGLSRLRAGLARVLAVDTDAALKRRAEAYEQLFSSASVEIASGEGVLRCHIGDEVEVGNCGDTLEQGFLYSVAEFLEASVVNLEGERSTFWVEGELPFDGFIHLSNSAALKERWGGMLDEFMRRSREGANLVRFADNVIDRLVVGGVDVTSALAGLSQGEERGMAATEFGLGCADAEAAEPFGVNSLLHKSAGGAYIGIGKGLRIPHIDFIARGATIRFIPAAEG
# T4: CgnC (Chondromyces crocatus CM c5)
# T4 chain: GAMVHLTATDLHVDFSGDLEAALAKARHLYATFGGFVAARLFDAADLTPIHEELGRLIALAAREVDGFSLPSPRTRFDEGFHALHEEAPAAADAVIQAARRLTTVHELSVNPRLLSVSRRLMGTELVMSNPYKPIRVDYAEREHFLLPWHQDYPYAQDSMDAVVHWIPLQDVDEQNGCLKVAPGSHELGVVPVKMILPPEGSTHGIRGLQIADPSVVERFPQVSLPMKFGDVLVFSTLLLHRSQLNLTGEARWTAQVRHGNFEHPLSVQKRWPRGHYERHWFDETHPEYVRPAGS
# T5: CgnB (Chondromyces crocatus CM c5)
# T5 chain: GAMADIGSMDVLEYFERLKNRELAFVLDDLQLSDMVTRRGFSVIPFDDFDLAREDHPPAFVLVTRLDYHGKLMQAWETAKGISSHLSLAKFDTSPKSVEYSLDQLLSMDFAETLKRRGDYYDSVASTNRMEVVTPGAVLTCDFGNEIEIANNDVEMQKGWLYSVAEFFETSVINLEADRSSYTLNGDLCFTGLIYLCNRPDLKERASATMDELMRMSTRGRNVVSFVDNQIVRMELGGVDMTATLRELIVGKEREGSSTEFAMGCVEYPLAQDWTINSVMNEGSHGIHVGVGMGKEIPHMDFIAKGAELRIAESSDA
# B1: CgnC (enzyme)
# chain: GAMVHLTATDLHVDFSGDLEAALAKARHLYATFGGFVAARLFDAADLTPIHEELGRLIALAAREVDGFSLPSPRTRFDEGFHALHEEAPAAADAVIQAARRLTTVHELSVNPRLLSVSRRLMGTELVMSNPYKPIRVDYAEREHFLLPWHQDYPYAQDSMDAVVHWIPLQDVDEQNGCLKVAPGSHELGVVPVKMILPPEGSTHGIRGLQIADPSVVERFPQVSLPMKFGDVLVFSTLLLHRSQLNLTGEARWTAQVRHGNFEHPLSVQKRWPRGHYERHWFDETHPEYVRPAGS
# modifications: sequence from Supplementary Table 8 (the excerpt mark inside it is read as contiguous); N-terminal GA is a cloning remnant; dimer by size-exclusion chromatography
# B2: CgnB in the presence of CgnA (400 µM) (complex)
# chain: GAMADIGSMDVLEYFERLKNRELAFVLDDLQLSDMVTRRGFSVIPFDDFDLAREDHPPAFVLVTRLDYHGKLMQAWETAKGISSHLSLAKFDTSPKSVEYSLDQLLSMDFAETLKRRGDYYDSVASTNRMEVVTPGAVLTCDFGNEIEIANNDVEMQKGWLYSVAEFFETSVINLEADRSSYTLNGDLCFTGLIYLCNRPDLKERASATMDELMRMSTRGRNVVSFVDNQIVRMELGGVDMTATLRELIVGKEREGSSTEFAMGCVEYPLAQDWTINSVMNEGSHGIHVGVGMGKEIPHMDFIAKGAELRIAESSDA
# modifications: sequence from Supplementary Table 8 (the excerpt mark inside it is read as contiguous); N-terminal GA is a cloning remnant; dimer by size-exclusion chromatography
# Columns and labels:
# [1] = target: T1, CgnB in the presence of CgnA (400 µM); assay: CgnA present with CgnC, CgnB titrated
# CgnE [2] = target: T2, CgnE; assay: CgnE titrated
# CgnE [3] = target: T2, CgnE; assay: MST; CgnA at constant high concentration
# [4] = target: T3, CgnE in the presence of CgnA (400 µM); assay: CgnA present with CgnC, CgnE titrated
# CgnE [5] = target: T2, CgnE; assay: MST
# CgnC = target: T4, CgnC; assay: MST; CgnA at constant high concentration
# CgnB = target: T5, CgnB; assay: MST
binder,measurement,setting,value
B1,Kd,[1],110 nM
same,Kd,CgnE [2],1100 nM
same,Kd,CgnE [3],900 nM
same,Kd,[4],900 nM
same,Kd,CgnE [5],1100 nM
B2,Kd,CgnC,110 nM
MKKTIKQISAGDRSKKGN [CgnA leader peptide (CgnA^LP)],Kd,CgnB,78200 nM

# — PMC10070186 (2023)
